# Test results reported in the nanobody polyreactivity screen of Harvey et al. (2022).
# Experiment: yeast display, Sf9 membrane polyspecificity reagent, FACS + sequencing; frameworks hold sequencing errors
# In short: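 Sorting gates, low and high (top ~1%), were placed on anti-HA fluorescence to track expression and on streptavidin fluorescence to track reagent binding. A clone's polyreactivity label is taken from the gate it came out of. The reagent was 10% biotinylated, detergent-solubilized Sf9 membrane, applied for 1 hour at 4 °C to galactose-induced yeast display cells.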
row,Sequence,polyreactivity (PSR sort gate)
1,QVQLVESGGGLVQAGGSLRLSCAASGRISGYKVMGWYRQAPGKERELVAAISGSGGSTYYADSVKGRFTISRDNAKNTVYLQMNSLKPEDTAVYYCAKATAYPYDYWGQGTQVTVSS,low polyreactivity
2,QVQLVESGGGLVQAGGSLRLSCAASGRISGYNMGWSRHAPGKERELVAAISNGGSTNYADSVKGRFTISRANAKNTVYLQMNSLKPEDTAVYYCAKLGPRSYSAYRYDYWGQGTQVTVSS,high polyreactivity
3,QVQLVESGGGLVQAGGSLRLSCAASGRISLSNAMGWYRQAPGKEREFVAAITKRSDRTYYADSVKGRFTISRDNAKNTVYLQMNSLKPEDTAVYYCAAKPLFGTRDDYWGQGTHVTVSS,low polyreactivity
4,QVQLVESGGGLVQAGGSLRLSCAASGRISNDYAMGWYRQAPGKERELVATITFSGGDTYYADSVKGRFTISRDNAKNTVYLQMNSLKPEDTAVYYCAASKWRSFSGGWWRLLFDYWGQGTQVTVSS,low polyreactivity
5,QVQLVESGGGLVQAGGSLRLSCAASGRISNDYAMGWYRQAPGKVRELVATITFSGGDTYYADSVKGRFTISRDNAKNTVYLQMNSLKPEDTSVYYCAASKWRSYSGGWWRLLFDYWGQGTQVTVSS,low polyreactivity
6,QVQLVESGGGLVQAGGSLRLSCAASGRISQIYAMGWYRQAPGKERELVARITSTDSTYYADSVKGRFTISRDNAKNTVYLQMNSLKPEDTAVYYCAASWWSPYDYWGQGTQVTVSS,low polyreactivity
7,QVQLVESGGGLVQAGGSLRLSCAASGRISQIYAMGWYRQAPGKERELVASISSSGSRTYYADSVKGRFTISRDNAKNTVYLQMNSLKPEDTAVYYCAARWWARSRGPYDYWGQGTQVTVSS,high polyreactivity
8,QVQLVESGGGLVQAGGSLRLSCAASGRISQIYAMGWYRQAPGTERELVASISSSGSRTYYADSVKGRFTISRDNAKNTVYLQMNSLKPEDTAVYYCAARWWARSNRYDYWGQGTQVTVSS,high polyreactivity
9,QVQLVESGGGLVQAGGSLRLSCAASGRISRRYAMGWYRQAPGKERELVAAITSGGRTYYADSVKGRFTISRDNAKNTVYLQMNSLKPEDTAVYYCAAAGYLPSTYWGQGTQVTVSS,high polyreactivity
10,QVQLVESGGGLVQAGGSLRLSCAASGRISSYYAMGWYRQAPGKDREFVARIRWSGGSTYYADSVKGRFTISRDNAKNTVYLQMNSLKPEDTAVYYCAAVPYAYGYTYDYWGQGTQVTVSS,high polyreactivity
11,QVQLVESGGGLVQAGGSLRLSCAASGRISTFYAMGWYRQAPGKERELVAGIRWRGGSTYYADSVKGRFTISRDNAKNTVYLQMNSLKAEDTAVYYCYSMDYWGQGTQVTVSS,high polyreactivity
12,QVQLVESGGGLVQAGGSLRLSCAASGRISVFNAMGWYREAPGKERELVAAITSGGSTNYADSVKGRFTISRDNAKNTVYLQMNSLKPEDTAVYYCNADVYHSHEPHYDYWGQGTQVTVSS,low polyreactivity
13,QVQLVESGGGLVQAGGSLRLSCAASGRISVVNARGWYRQAPGKERELVAAIRRASTNYADSVKGRFTISRDIAKNTVYLQMNILKPEDTAVYYCAARVYGINIFEYWGQGTQVTVSS,high polyreactivity
14,QVQLVESGGGLVQAGGSLRLSCAASGRISWGYAMGWYRQAPGKERELVAVINFNGGRTYYADSVKGRFTISRDNAKNTVYLQMNSLKPEDTAVYYCAADSGYEYDYWGQGTQVTVSS,low polyreactivity
15,QVQLVESGGGLVQAGGSLRLSCAASGRISYAYAMGRYRQAPGKERELVAAISGSGGSTYYADSVKWRFTISRDNAKNTVYFQMNTLKPEDTAVYYCAAGSGEYYGGKRYYWGQGTQVTVSS,low polyreactivity
16,QVQLVESGGGLVQAGGSLRLSCAASGRIVLGYAMGWYRQQPGKEMELVAAISRSGGGTFYADSVKGRFTISRDNAKNTVYLQMNSLKPEDTAVYYCNARRGRASGMDYWGQGTQVTVSS,high polyreactivity

row,Sequence,polyreactivity (PSR sort gate)
1,QVQLVESGGGLVQAGGSLRLSCAASGRIVNRYAMGWDRQAPVKERELVAAITYNGGSTYYADSVKGRFTISRDNAKNTVYLQMNSLKPVDTAVYYCNAVEVLDEGWGFWYYYWGQGTQVTVSS,high polyreactivity
2,QVQLVESGGGLVQAGGSLRLSCAASGRIVRNAMGWYRQSPGKERELVAAISRSGGSTYYADSVKGRFTISRDNAKNTVYLQMNSLKPEDTAVYYCAKRSTSQSLQGEYWGQGTQVTVSS,high polyreactivity
3,QVQLVESGGGLVQAGGSLRLSCAASGRIVVGYAMGWYRQAPGKERELVAAINRSGSSTYYADSVKGRFTISRDNAKNTVYLQMNSLKPEDTAVYYCNARSGNRYGPRYDYWGQGTQVTVSS,high polyreactivity
4,QVQLVESGGGLVQAGGSLRLSCAASGRIWWNAMGWYRPAPGNETELVAAIRWSGGITRYADSVKGRFTISRDNAKNTVDLQMHSLKPEDTAVYYCAARLGGSIRSKFDYWGQGTQVTVSS,high polyreactivity
5,QVQLVESGGGLVQAGGSLRLSCAASGRIYDYNTMGWYRKAPGKERELVAAITGGTGSTYYADSVKGRFTISRDNAKNTVYLQMNSLKPEDTAVYYCAAGFHKRVTPEILYDYWGQGTQVTVSS,low polyreactivity
6,QVQLVESGGGLVQAGGSLRLSCAASGRIYDYYAMGWYRQAPGKERELVAAISTSGGSTYYADSVKGRFTISRDHAKNTVYLQMKSLKPEDTAVYYCAKDITVTYPGLDYDYWGQVTQVTVSS,low polyreactivity
7,QVQLVESGGGLVQAGGSLRLSCAASGRIYGANTMGWYRQAPGKERELVAAISWRGTSTYADSVKGRFSISRDNAKNTVYLQMNSLKPEDTAVYYCAARRRGWPQFDYWGQGTQVTVSS,high polyreactivity
8,QVQLVESGGGLVQAGGSLRLSCAASGRIYGDYAMGWYRQAPGKERELVARITWSGTGTYYADSVKGRFTISRDNAKNTVYLQMNSLKPEDTAVYYCNADWQVKWYYYWGQVTQVTVSS,low polyreactivity
9,QVQLVESGGGLVQAGGSLRLSCAASGRIYGNAMGWYRQAPGKERELDAAISFSVSSTNYADSVKGRFTISRDNAKNTVYLQMNSLKPEDTAVYYCAADWIGPTYPEMYYWGQGTQVTVSS,low polyreactivity
10,QVQLVESGGGLVQAGGSLRLSCAASGRIYGTNAMGWYRQAPGKEMELVAAINGSDSSTYYADSVKGRFTISRDNAKNTVYLQINSLKPEDTAVYYCNADWSGAPERSTDGYDYWGQGTQVTVSS,low polyreactivity
11,QVQLVESGGGLVQAGGSLRLSCAASGRIYGYYGMGWYRQAPGKERELVAAITYRGGSTYYADSVKGRFTISRDNAKNTVYLQMNSLKPEDTAVYYCAADGYSHYRYLYDYWGQGTQVTVSS,low polyreactivity
12,QVQLVESGGGLVQAGGSLRLSCAASGRIYNSYAMGWYRQAPGKERELVASTNYADSVKGRFTISRDNAKNTVYLQMNSLKPEDSAVYYCARVDVGWQGGEVLFGRFGYWGQGTQVTVSS,low polyreactivity
13,QVQLVESGGGLVQAGGSLRLSCAASGRIYPKYGMGWYRQAPGKERELVAAITSGTSTYYADSVKGRFTISRDNAKNTVYLQMNSLKPEDTAVYYCAARPTDGSGWPYRWTSDYWGQATQVTVSS,low polyreactivity
14,QVQLVESGGGLVQAGGSLRLSCAASGRIYRYYAMGWYRQPPAKERELVAAIRRGGSTSYADSVKGRFTISRDNAKNTVYLQMNSLKPEDTAVYYCAATQYYRGYDYWGQGTQVTVSS,high polyreactivity
15,QVQLVESGGGLVQAGGSLRLSCAASGRIYSFYAMGWYRQAPGKERELVAAITYTDGSTYADSVKGRFTISRDNAKNTVYLQLNSLKPEDTSVYYFATRYRWTPYDFWGQGTQVTVSS,low polyreactivity
16,QVQLVESGGGLVQAGGSLRLSCAASGRIYSSYAMGRYRQAPGKERELVAAISYSGDRTYYADSVKGRFTISRDNAKNTVYLQMNSLKPEDTAVYYCAARRVTRTTVYRYQYYYWGQGTQVTVSS,high polyreactivity
